# According to the RNAGym collection of RNA variant scans (doi:10.1073/pnas.2313332121):
# B1: TPR t1 (parent)
# chain: GACCAAUCUGCCCUCAGAGCUCGAGAACAUCUUCGGAUGCAGAGGAGGCAGGCUUCGGUGGCGCGAUAGCGCCAACGUCCUCAACCUCCAAUGCAUCCCACCACAUGAUGAUGCCUGAAGAGCCUUGGUUUUUUG
# Variants of: B1
# Test: polymerase ribozyme fitness, log enrichment relative to wild type (log ratio); higher = more active; in vitro selection for triplet polymerase activity
# In short: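 To select mutant libraries of each subunit of a heterodimeric triplet polymerase ribozyme, built by PCR and transcribed, each was annealed with a biotinylated primer, partner subunit and triplets, then incubated frozen at −7 °C. Extended constructs were gel-excised, captured on streptavidin beads and amplified by RT-PCR, in one round carried out in triplicate. Illumina sequencing of input and output libraries kept genotypes with ≥10 input reads and ≥1 read per output. Fitness is the base-2 logarithm of genotype enrichment relative to wild-type enrichment, from inverse-variance-weighted replicate averages.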
row,Variant,polymerase ribozyme fitness (log ratio)
1,A43G G60A C79U G93A,-2.95
2,G42C C49U G63A G120A G128U,-5.69
3,A41U U81A A121C,-0.475
4,A43C C56U,-2.57
5,G44A C79A,-3.11
6,G44A A50G C73U C102A C115G,-5.62
7,G44C C62G U132A,-2.39
8,A43U U87G A91C A95G A118G,-1.27
9,A43G G58C G60A,-2.53
10,G42C G61A,-0.466
11,G44A C82A,-1.69
12,A43U C99A C101G G110A,-7.09
13,G44C A84U,-1.11
14,G44C A84C,-0.969
15,A43C C49U G63U A66C,-5.38
16,G44C C76U U81G,-5.45
17,G42C G44U G63U C123A G128C,-3.33
18,G44A G71A,-2.54
19,G42C C88U U106A A121C U125A,-1.81
20,A43G G48U C114U,-2.07
21,G42C A50U C82A,-2.49
22,A43G A50U,-3.81
23,G44C C53U C86A A95U C101U,-3.19
24,A43C A74G C101A A111G,-3.37

row,Variant,polymerase ribozyme fitness (log ratio)
1,G42U C72U G93U A118G,-4.06
2,A43U C56A C115U,-2.52
3,A43G C124A,0.39
4,G42A G77A,-2.61
5,G42C G120U,-1.69
6,A43U A46U U106A U131A,-2.17
7,G42A C70A C89A C124U,-4
8,A43U G45C C49U G61U G120A,-1.99
9,G44A G63A C80A G110U C115G,-7.37
10,A41U U109C C114U G120U,-4.6
11,G42A G61C C114U G117C,-5.25
12,A43G G61A G65U,-5.48
13,G42U A46U U96G,-2.26
14,G44A G110U,-2.5
15,G42C G57C A66C,-4.36
16,A43G C73G U78A A111G,-3.33
17,A41U U54C A75G C88A U133A,-1.96
18,G42U U106A,-1.56
19,G44C C72A,-0.169
20,A43G C53A,-2.39
21,G42A G69C C124U,-2.56
22,A43C C70U C82A A91U G93U U96C C124G,-3.67
23,A43C G61C U112A,-5.07
24,A43U G63U U134G,-3.02

row,Variant,polymerase ribozyme fitness (log ratio)
1,G42A U106C,-2.12
2,G42A A74C G120C,-2.11
3,A43U U55A G127A,-3.12
4,G42C C80U U92G,-3.41
5,G42U C72U U125A,-1.92
6,G42C A43G A84C C114A,-2
7,G44A G47U U78C G110A,-3.74
8,G44A G52U,-2.04
9,A43C C62U U87G C88G A90C G127C U132C,-3.94
10,G42U G51C,-6.75
11,G42C G63A C88U,-3.63
12,G42U G69A,-5.35
13,G42U G52C C97G C115U,-6.37
14,G42C G60A G120U,-2.21
15,A43U U132A,-1.08
16,A43G G44U A46U,-2.25
17,G42C C49A G69U A90U U109G G128U,-6.14
18,A43U G61U,-2.41
19,A43U G61C,-4.42
20,G42C C64U,-0.982
21,G44A C56U C72U G120C U129C,-2.55
22,G44C A50G A111U C123A G135U,-5.29
23,G42A G44U C73A,-1.69
24,G42C C62G,-4.74

row,Variant,polymerase ribozyme fitness (log ratio)
1,A43C U87C,-1.86
2,G42A U54A C72G C86U G110A C124G,-4.88
3,A43G C82G C114U A119G U131A,-2.01
4,G42A C72U,-2.31
5,A43C G117U,-5
6,G42U G48U,-3.89
7,G42A C53U C64U U106A A119G,-1.87
8,G44C C56U C88U C101U G110U,-3.38
9,A43U G48A G71U U112A,-1.51
10,G44A G52C G58A G120A,-1.3
11,G42A G127U,-2.7
12,G44A C72A G117A,-2.9
13,G42U G117A,-2.9
14,G44A G60A,-0.624
15,G44A A121C U125G,0.065
16,G42U G77U,-1.86
17,A43G U54G C89G C94G,-3.3
18,G44C C53U C56U C115U G117U G135A,-3.91
19,G42C C53A C85U C114G C124U U133G,-3.5
20,A43U C62U G77A U126A,-5.02
21,A43U G110C,-5.24
22,A43U C49U U59C C70U C115U,-5.6
23,G42A U87A C89U,-2.26
24,A41U U87A,-1.14

row,Variant,polymerase ribozyme fitness (log ratio)
1,A43C C56A U59A C72U,-3.55
2,A43G G47C C64U C86G U125G G127C,-3.04
3,A43U C73U C86U U125G,-2.65
4,G44A C72G U112G G117A,-5.1
5,A43C U78A C82A,-3.68
6,A43U U55A C72A G127A,-2.75
7,G42C C114A,-2.26
8,A43U U112C A119U,-0.989
9,A43C C70A C94U,-6.65
10,A43U G117U,-3.35
11,G42U G52U U96A C124G,-1.76
12,A43C G63C,-3.41
13,A43G G71C U87G,-4.59
14,A43U C72U,-1.17
15,G44A A111C U131G,-2.35
16,G44A G69U U81A,-0.353
17,G44A G57C G61A U112C G120A G127A,-1.81
18,A43G G120U,-1.47
19,G44A G61U C88G,-2.64
20,A43U G63C G117C,-4.52
21,G42U A50G G57C G61U C80A C82A G120A,-4.58
22,A41U U78C,-1.1
23,G42C G71U U96G,-3.01
24,A43C C49G A84G C115U G135U,-6.22

row,Variant,polymerase ribozyme fitness (log ratio)
1,G42A C85G G93A,-3.19
2,G42C U55C G60A C124G U132A,0.349
3,A43U C102A,-4.93
4,G42C C101U,-1.45
5,G42C C49A U92C G117A G122A,-4.11
6,G44C C49A C101G U112G U131G,-4.71
7,G42A C62G G69C C99A A111G C115U U129C,-6.83
8,A43C C123A,-2.65
9,A43U C56G G63A,-5.13
10,G42A C80U,-2.64
11,G42C G52U,-2.21
12,G42A G45U G57U C88U U130A,-3.68
13,G42A G60U C114G U129C,-3.48
14,A43U A46U A105U C124G,-4.04
15,G42U G69C G120U,-3.45
16,G42U C79U A100U,-2.8
17,G42U C56G C123U,-0.406
18,A43U G44A A68U C70A C115A C124A U125C U132A,-6.95
19,G42A C101U,-1.9
20,A43U C70U,-2.1
21,A43C G45C G63C G117U A118U G135A,-5.43
22,G44A C53G G63U C102A A105G G117C,-7.23
23,G42A G117U,-3.37
24,A43U G60A G120C,-1.01

row,Variant,polymerase ribozyme fitness (log ratio)
1,G42A U78C,-1.87
2,A43U A75U U126G,-3.5
3,G44A C101U,-1.1
4,G44A C101A,-2.48
5,A43G G61U C94G A103U C114G,-5.99
6,G42C C49U G128A,-5.33
7,G44A C86A C89U C115G C123A,-2.79
8,G42C G57A C64A C85A G113U,-7.14
9,A43G G44U A46U U133A,-2.67
10,A43C G71U C80U G110A G113U,-7.29
11,G42U G48A C104U,-0.902
12,G44C A46C U54A C88G C97U G113C,-3.49
13,A41U U54C C124U,1
14,G42C C82U,-1.49
15,G44A G47U C94A,-2.96
16,A43U A46U G71U U125A U129A,-4.93
17,G44C A91G,-1.82
18,A43C U112G,-2.77
19,G42U U87G,-0.907
20,A43C U55C C64U A84G G110U U125A,-6.14
21,A43G U92C,-3
22,G44A C49U U106C,-2.86
23,G44A C49A C73U U116C,-2.91
